The results in this text go back to patent US20200385482A1.

The chains are these.
B1: Ab-52 (antibody, V domains shown)
VH: QVQLQESGGGVVQPGRSLRLSCSASGFTFSRHGMHWVRQAPGKGLEWVAVISHDGSVKYYADSMKGRFSISRDNSNNTLYLQMDSLRADDTAVYYCARGLSYQVSGWFDPWGQGTLVTVSS
VL: NFMLTQPHSVSESPGKTVTISCTRSSGSIASNYVQWYQQRPGSAPTTVIYEDNQRPSGVPDRFSGSIDSSSNSASLTISGLKTEDEADYYCQSYDSTTPSVFGGGTKLTVL
B2: Ab-31 (antibody, V domains shown)
VH: QVQLVQSGAEVKKPGATVKVSCKVFGDTFRGLYIHWVRQAPGQGLEWMGGIIPIFGTANYAQKFQGRVTITTDESTSTAYMELSSLRSEDTAVYYCASGLRWGIWGWFDPWGQGTLVTVSS
VL: EIVLTQSPATLSLSPGERATLSCRASQSIGNSLAWYQQKPGQAPRLLMYGASSRATGIPDRFSGSGAGTDFTLTISSLEPEDFATYYCQQHTIPTFSFGPGTKVEVK
B3: Ab-16 (antibody, V domains shown)
VH: EVQLVQSGGGVVQPGRSLRLSCAASGFTFSSYALSWVRQAPGKGLEWVSAISGGGGSTYYADSVKGRFTISRDNSKNTLYLQMNSLRAEDTAVYYCAKDVFPETFSMNYGMDVWGQGTLVTVSS
VL: SSELTQDPAVSVALGQTVRITCQGDSLRSYYASWYQQKPGQAPVLVIYGKNNRPSGIPDRFSGSSSGNTASLTITGAQAEDEADYYCNSRDSSGNHYVFGTGTKVTVL

Sequence of human C-type lectin domain family 2 member (hCLEC2D) expressed on transfected 300.19 cells (human) (Q9UHP7 whole entry, the tested form may be a part): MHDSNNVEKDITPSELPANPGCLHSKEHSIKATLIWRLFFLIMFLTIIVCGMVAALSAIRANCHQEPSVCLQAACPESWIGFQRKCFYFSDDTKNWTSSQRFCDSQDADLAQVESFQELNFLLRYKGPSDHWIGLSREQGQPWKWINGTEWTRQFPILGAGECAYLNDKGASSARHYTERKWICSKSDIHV

The first assay addresses human C-type lectin domain family 2 member (hCLEC2D) expressed on transfected 300.19 cells (human) (UniProt Q9UHP7). The assay can be described thus: FACS, hCLEC2D 300.19 cells, assay 1, Ab 1 ug/ml. A general note: A flow cytometer gives signals particle by particle.
Molecule B1 showed a Cells PE-A Mean of 1100 MFI.

The molecule B2 had a Cells PE-A Mean of 870 MFI.

In turn, B3 had a Cells PE-A Mean of 898 MFI.

The next assay has the same target. In words: FACS, hCLEC2D 300.19 cells, assay 2, Ab 1 ug/ml.
Molecule B1 had a Cells PE-A Mean of 1100 MFI.

B2 gave a Cells PE-A Mean of 870 MFI.

The molecule B3 returned a Cells PE-A Mean of 898 MFI.

Another assay has the same target. In words: FACS, hCLEC2D 300.19 cells, assay 1, Ab 0.1 ug/ml.
Consider B1, for which the Cells PE-A Mean came out at 298 MFI.

B2 displayed a Cells PE-A Mean of 360 MFI.

Take B3: the Cells PE-A Mean is 294 MFI.

For a further assay the target is unchanged. The assay can be described thus: FACS, hCLEC2D 300.19 cells, assay 2, Ab 0.1 ug/ml.
Consider B1, for which the Cells PE-A Mean was 298 MFI.

For B2, the Cells PE-A Mean came out at 360 MFI.

Take B3: the Cells PE-A Mean was 294 MFI.

For the next assay the target is unchanged. The assay can be described thus: FACS, hCLEC2D 300.19 cells, assay 1, Ab 0.01 ug/ml.
For the molecule B1, the Cells PE-A Mean turned out to be 166 MFI.

B2 yielded a Cells PE-A Mean of 153 MFI.

B3 came in with a Cells PE-A Mean of 154 MFI.

Another assay shares this target. In words: FACS, hCLEC2D 300.19 cells, assay 2, Ab 0.01 ug/ml.
B1 showed a Cells PE-A Mean of 166 MFI.

As to B2, the Cells PE-A Mean was 153 MFI.

B3 returned a Cells PE-A Mean of 154 MFI.

The target is the same in another assay. In words: FACS, hCLEC2D 300.19 cells, assay 1, Ab approx 10 ug/ml.
In the case of B1, the Cells PE-A Mean amounted to 3140 MFI.

For the molecule B2, the Cells PE-A Mean was determined as 2950 MFI.

Molecule B3 had a Cells PE-A Mean of 2370 MFI.

A further assay has the same target. In words: FACS, hCLEC2D 300.19 cells, assay 2, Ab approx 10 ug/ml.
Molecule B1 displayed a Cells PE-A Mean of 3140 MFI.

With B2, the Cells PE-A Mean turned out to be 2950 MFI.

B3 returned a Cells PE-A Mean of 2370 MFI.
